We go through 7 molecules from article doi:10.1101/2020.12.29.424679 (bioRxiv, 2020).

A word on the stoichiometry N: it is the number of molecules, sites or subunits per partner or assembly. As usually defined, the Kd is the constant that tells how readily two partners part at equilibrium.

B3: Armadillo domain of HSF2BP (ARM, aa 122 to aa 334) (domain or fragment)
chain: EMGAAACTLLWGVSSSEEVVKAILGGDKALKFFSITGQTMESFVKSLDGDVQELDSDESQFVFALAGIVTNVAAIACGREFLVNSSRVLLDTILQLLGDLKPGQCTKLKVLMLMSLYNVSINLKGLKYISESPGFIPLLWWLLSDPDAEVCLHVLRLVQSVVLEPEVFSKSASEFRSSLPLQRILAMSKSRNPRLQTAAQELLEDLRTLEHNV

Data set [1] deals with T1, Human full length HSF2BP WT (human, UniProt O75031 1-334).
T1 sequence: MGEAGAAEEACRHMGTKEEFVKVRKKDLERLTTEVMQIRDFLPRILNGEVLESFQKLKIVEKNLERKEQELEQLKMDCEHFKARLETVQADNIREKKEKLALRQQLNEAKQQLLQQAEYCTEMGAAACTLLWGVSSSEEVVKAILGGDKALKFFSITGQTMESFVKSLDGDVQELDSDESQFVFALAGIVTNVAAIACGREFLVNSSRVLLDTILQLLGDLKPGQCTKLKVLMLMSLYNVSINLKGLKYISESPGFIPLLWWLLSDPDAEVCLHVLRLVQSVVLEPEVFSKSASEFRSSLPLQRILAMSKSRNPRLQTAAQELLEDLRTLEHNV
The data set can be described thus: ITC. (Isothermal titration calorimetry measures the heat released or taken up as one component is titrated into another.)

Data set [2] has as its target Mouse HSF2BP-GFP (mouse (knock-in allele in mES cells)) (UniProt Q9D4G2). The data set can be described thus: co-IP.
The target in data set [3] is B3. The data set is described as follows: ITC.
The data set “SEC-MALS” deals with the molecule itself. The data set can be described thus: SEC-MALS. For orientation: SEC sorts molecules by how far they enter the pores of the column.
Data set [4] concerns the molecule itself. The data set can be described thus: SEC-MALS + other: SEC-SAXS.
For data set [5], the target named is Mouse BRCA2-GFP Δ12 (mouse (knock-in allele in mES cells)) (UniProt P97929). The data set is described as follows: co-IP.
Mouse BRCA2-GFP Δ12 (mouse (knock-in allele in mES cells)), sequence (P97929 whole entry, stated change not applied): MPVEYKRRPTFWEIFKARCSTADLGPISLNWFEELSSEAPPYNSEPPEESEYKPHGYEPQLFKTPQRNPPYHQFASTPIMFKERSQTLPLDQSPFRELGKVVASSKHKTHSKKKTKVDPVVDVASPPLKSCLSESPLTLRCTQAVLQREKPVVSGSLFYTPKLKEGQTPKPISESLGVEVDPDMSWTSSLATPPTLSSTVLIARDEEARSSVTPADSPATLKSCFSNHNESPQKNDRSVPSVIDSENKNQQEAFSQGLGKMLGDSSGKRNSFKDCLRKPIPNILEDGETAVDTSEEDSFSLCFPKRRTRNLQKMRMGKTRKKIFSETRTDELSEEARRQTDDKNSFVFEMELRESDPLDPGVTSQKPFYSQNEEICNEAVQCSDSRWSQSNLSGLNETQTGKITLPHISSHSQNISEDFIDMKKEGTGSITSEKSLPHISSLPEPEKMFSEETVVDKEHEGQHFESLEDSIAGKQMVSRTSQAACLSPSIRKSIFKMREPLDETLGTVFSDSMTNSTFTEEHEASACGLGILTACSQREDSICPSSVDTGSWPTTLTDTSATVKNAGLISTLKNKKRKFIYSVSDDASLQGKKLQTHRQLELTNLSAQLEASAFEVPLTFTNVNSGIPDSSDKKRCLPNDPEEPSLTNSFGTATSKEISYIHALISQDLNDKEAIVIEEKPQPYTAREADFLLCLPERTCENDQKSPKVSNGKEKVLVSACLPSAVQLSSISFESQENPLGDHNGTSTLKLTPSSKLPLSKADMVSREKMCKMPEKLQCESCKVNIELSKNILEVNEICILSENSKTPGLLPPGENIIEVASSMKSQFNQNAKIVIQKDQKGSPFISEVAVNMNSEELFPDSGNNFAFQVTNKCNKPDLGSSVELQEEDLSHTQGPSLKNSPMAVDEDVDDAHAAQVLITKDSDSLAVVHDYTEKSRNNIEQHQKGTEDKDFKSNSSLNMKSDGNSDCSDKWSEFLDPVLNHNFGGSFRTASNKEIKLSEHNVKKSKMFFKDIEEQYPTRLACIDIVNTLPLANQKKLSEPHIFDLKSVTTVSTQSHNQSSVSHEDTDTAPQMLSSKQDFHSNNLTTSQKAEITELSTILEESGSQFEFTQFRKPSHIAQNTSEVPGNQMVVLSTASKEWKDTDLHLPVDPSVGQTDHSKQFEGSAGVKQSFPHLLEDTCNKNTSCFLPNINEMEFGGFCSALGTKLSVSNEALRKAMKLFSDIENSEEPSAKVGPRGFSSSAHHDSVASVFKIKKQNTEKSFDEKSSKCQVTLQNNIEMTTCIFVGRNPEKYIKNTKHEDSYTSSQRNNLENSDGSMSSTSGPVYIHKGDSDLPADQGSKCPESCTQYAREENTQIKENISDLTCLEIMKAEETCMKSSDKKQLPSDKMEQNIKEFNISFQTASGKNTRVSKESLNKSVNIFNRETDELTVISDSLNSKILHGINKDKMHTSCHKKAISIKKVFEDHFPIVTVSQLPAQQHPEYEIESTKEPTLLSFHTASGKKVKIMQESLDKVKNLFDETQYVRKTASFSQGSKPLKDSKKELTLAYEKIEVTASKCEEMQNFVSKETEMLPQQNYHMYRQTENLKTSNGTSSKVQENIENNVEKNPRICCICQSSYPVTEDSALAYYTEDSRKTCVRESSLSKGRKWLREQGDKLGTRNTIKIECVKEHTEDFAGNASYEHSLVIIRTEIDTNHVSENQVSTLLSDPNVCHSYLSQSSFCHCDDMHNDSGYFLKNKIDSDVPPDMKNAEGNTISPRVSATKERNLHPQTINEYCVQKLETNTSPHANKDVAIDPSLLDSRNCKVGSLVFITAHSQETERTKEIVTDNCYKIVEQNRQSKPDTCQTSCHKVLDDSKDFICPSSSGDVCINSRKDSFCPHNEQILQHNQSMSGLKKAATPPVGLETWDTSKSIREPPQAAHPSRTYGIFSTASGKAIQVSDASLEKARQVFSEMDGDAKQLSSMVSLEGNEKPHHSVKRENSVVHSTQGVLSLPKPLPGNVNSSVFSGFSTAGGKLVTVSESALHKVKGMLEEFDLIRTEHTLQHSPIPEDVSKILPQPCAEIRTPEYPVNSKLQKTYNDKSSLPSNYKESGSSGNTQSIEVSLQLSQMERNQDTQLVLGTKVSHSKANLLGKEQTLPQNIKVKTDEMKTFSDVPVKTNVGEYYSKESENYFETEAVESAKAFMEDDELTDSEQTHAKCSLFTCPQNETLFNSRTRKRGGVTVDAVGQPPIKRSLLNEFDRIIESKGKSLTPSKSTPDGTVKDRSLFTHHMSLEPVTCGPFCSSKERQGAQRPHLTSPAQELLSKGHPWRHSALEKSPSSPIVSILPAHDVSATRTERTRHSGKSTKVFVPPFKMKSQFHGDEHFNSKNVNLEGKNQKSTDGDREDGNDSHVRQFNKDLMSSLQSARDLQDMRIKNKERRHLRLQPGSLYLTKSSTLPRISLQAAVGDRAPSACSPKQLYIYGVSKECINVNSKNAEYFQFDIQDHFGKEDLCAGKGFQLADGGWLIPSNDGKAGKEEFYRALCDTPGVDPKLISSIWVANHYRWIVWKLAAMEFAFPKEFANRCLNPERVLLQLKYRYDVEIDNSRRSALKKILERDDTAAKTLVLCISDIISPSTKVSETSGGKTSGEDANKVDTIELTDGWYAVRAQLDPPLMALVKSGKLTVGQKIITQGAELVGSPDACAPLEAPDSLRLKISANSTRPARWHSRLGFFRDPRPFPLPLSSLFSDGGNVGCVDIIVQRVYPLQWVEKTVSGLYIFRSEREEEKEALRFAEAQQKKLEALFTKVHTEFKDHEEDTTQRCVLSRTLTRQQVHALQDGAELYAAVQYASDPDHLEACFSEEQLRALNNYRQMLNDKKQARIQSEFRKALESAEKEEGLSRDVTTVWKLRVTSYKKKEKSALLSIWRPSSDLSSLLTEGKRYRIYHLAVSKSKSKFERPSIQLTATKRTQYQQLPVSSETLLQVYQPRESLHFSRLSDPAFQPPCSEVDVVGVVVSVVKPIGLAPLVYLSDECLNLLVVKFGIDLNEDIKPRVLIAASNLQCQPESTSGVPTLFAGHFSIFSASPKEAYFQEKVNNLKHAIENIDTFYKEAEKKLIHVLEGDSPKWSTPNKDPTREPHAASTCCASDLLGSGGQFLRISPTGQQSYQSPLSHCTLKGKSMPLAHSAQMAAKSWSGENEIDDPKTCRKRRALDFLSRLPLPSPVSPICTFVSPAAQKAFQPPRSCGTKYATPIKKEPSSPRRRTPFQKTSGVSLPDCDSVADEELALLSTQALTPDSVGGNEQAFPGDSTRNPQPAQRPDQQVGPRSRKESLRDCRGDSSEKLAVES

In data set [1], BRCA2 peptide F15XΔ12 (D2312-E2342) registered a fold weaker affinity than HSF2BP for F0 of 1000 fold and a stoichiometry N of 1.
“Mouse BRCA2-Δ12 (from UniProt P97929 1-3329) (natural protein)” registered a percent loss of co-precipitation against wild-type BRCA2 in data set [2] of 97 to 99%.

B1: Human BRCA2 fragment F0 (S2213-Q2342, C2332T) (domain or fragment)
chain: STYSKDSENYFETEAVEIAKAFMEDDELTDSKLPSHATHSLFTCPENEEMVLSNSRIGKRRGEPLILVGEPSIKRNLLNEFDRIIENQEKSLKASKSTPDGTIKDRRLFMHHVSLEPITTVPFRTTKERQ
In the case of B1, in data set [1], the Kd is 1 nM, the “fold tighter binding than ARM to F0” value is about 25 fold and the “stoichiometry N” value turned out to be 0.5. In addition, the “stoichiometry N” value in data set [3] was found to be 0.5.

B2: Human BRCA2 fragment FNMR (S2252-Q2342) (domain or fragment)
chain: SLFTCPENEEMVLSNSRIGKRRGEPLILVGEPSIKRNLLNEFDRIIENQEKSLKASKSTPDGTIKDRRLFMHHVSLEPITTVPFRTTKERQ
Regarding B2, in data set [3], the Kd is about 10 nM and the “fold higher affinity than ARM for F0” value is about 3 fold.
As for B3, the results for the “stoichiometry N” value (in “SEC-MALS”; in data set [4]) were 2 and 4, respectively.

B4: Human BRCA2 fragment F15X (N2291-Q2342) (peptide)
chain: NEFDRIIENQEKSLKASKSTPDGTIKDRRLFMHHVSLEPITTVPFRTTKERQ
For B4, in data set [3], the Kd is about 10 nM and the “fold higher affinity than ARM for F0” value is about 3 fold.

B5: Mouse HSF2BP, natively expressed in ES cells (natural protein)
chain: MAATVGDGSGTEEACRNMESKEEFVKVRKKDLERLTTEVMQIRDFLPRILNGELLESFQKLKMVEKNLERKEQELEQLIMDREHFKARLETAQADSGREKKEKLALRQQLNEAKQQLLQQAEYCTQMGAVTCTLLWGVSSSEEVVKTILGGDKALKFFNITGQTMESFVKSLDGDVKEVDSDENQFVFALAGIVTNVAAIACGREFLVNSSRVLLDTMLQLLGDLKPGQCTKLKVLMLMSLYNVSINSKGLKYITESPGFIPLLWWLLSDPDAEVCLHTLRLIQSVVLEPDVFSKVASELQSSLPLQRILAMSKSRNSHLQSAAQELLEDLRALDCNV
B5 showed a percent loss of co-precipitation against full-length BRCA2-GFP in data set [5] of 95%.
